According to patent US20240400654A1:
Changes are numbered by the printed parent chain. Numbers in names are those of the source. Where “and” joins values, the source holds several entries; their conditions need not be identical. Equal values may be shown once.

B1: KB001 mouse Fab VL V29I (Fab, V domains shown)
VH: EVQLKQSGPGLVAPSQSLSITCTVSGFSLSIYSVHWVRQPPGKGLEWLGMIWGGGSSDYNSALKSRLSISKDNSKSQVFLKMNSLQTDDTAMYYCARNGNFYAMDYWGQGTSVTVSS
VL: QIVLTQSPAIMSASLGERVTMTCTASSSISSSFLHWYQQKPGSSPQLWIYSTSNLASGVPARFSGSGSGTSYSLTISSMEAEDAATYYCHQYHHSPYIYTFGGGTKLEIK
B2: KB001 mouse Fab VL F33N (Fab, V domains shown)
VH: B1 VH
VL: B1 VL with I29V, F33N
B3: KB001 mouse Fab VL S30I (Fab, V domains shown)
VH: B1 VH
VL: B1 VL with I29V, S30I
B4: KB001 mouse Fab VL V29L (Fab, V domains shown)
VH: B1 VH
VL: B1 VL with I29L
B5: KB001 mouse Fab VL S31Q (Fab, V domains shown)
VH: B1 VH
VL: B1 VL with I29V, S31Q
B6: KB001 mouse Fab VL S30D (Fab, V domains shown)
VH: B1 VH
VL: B1 VL with I29V, S30D
B7: KB001 mouse Fab VL S30L (Fab, V domains shown)
VH: B1 VH
VL: B1 VL with I29V, S30L
B8: KB001 mouse Fab VL S30R (Fab, V domains shown)
VH: B1 VH
VL: B1 VL with I29V, S30R
B9: KB001 mouse Fab VL S30H (Fab, V domains shown)
VH: B1 VH
VL: B1 VL with I29V, S30H
B10: KB001 mouse Fab VL L34M (Fab, V domains shown)
VH: B1 VH
VL: B1 VL with I29V, L34M
B11: KB001 mouse Fab VL S32Q (Fab, V domains shown)
VH: B1 VH
VL: B1 VL with I29V, S32Q
B12: KB001 mouse Fab VL T52R (Fab, V domains shown)
VH: B1 VH
VL: B1 VL with I29V, T52R
B13: KB001 mouse Fab VL S32Y (Fab, V domains shown)
VH: B1 VH
VL: B1 VL with I29V, S32Y
B14: KB001 mouse Fab VL S30K (Fab, V domains shown)
VH: B1 VH
VL: B1 VL with I29V, S30K
B15: KB001 mouse Fab VL F33H (Fab, V domains shown)
VH: B1 VH
VL: B1 VL with I29V, F33H
B16: KB001 mouse Fab VL L34I (Fab, V domains shown)
VH: B1 VH
VL: B1 VL with I29V, L34I
B17: KB001 mouse Fab VL S31W (Fab, V domains shown)
VH: B1 VH
VL: B1 VL with I29V, S31W
B18: KB001 mouse Fab VL L34V (Fab, V domains shown)
VH: B1 VH
VL: B1 VL with I29V, L34V
B19: KB001 mouse Fab VL S30E (Fab, V domains shown)
VH: B1 VH
VL: B1 VL with I29V, S30E
B20: KB001 mouse Fab VL T52L (Fab, V domains shown)
VH: B1 VH
VL: B1 VL with I29V, T52L
B21: KB001 mouse Fab VL S30M (Fab, V domains shown)
VH: B1 VH
VL: B1 VL with I29V, S30M
B22: KB001 mouse Fab VL S32G (Fab, V domains shown)
VH: B1 VH
VL: B1 VL with I29V, S32G
B23: KB001 mouse Fab VL T52K (Fab, V domains shown)
VH: B1 VH
VL: B1 VL with I29V, T52K
B24: KB001 mouse Fab VL S32A (Fab, V domains shown)
VH: B1 VH
VL: B1 VL with I29V, S32A
B25: KB001 mouse Fab VL S30T (Fab, V domains shown)
VH: B1 VH
VL: B1 VL with I29V, S30T
B26: KB001 mouse Fab VL S31D (Fab, V domains shown)
VH: B1 VH
VL: B1 VL with I29V, S31D
B27: KB001 mouse Fab VL S32P (Fab, V domains shown)
VH: B1 VH
VL: B1 VL with I29V, S32P
B28: KB001 mouse Fab VL S30W (Fab, V domains shown)
VH: B1 VH
VL: B1 VL with I29V, S30W
B29: KB001 mouse Fab VL S32W (Fab, V domains shown)
VH: B1 VH
VL: B1 VL with I29V, S32W

Target: HRgpA-6H (Porphyromonas gingivalis) (UniProt P28784)
Chain of UniProt P28784 (P28784 228-860 limits assumed): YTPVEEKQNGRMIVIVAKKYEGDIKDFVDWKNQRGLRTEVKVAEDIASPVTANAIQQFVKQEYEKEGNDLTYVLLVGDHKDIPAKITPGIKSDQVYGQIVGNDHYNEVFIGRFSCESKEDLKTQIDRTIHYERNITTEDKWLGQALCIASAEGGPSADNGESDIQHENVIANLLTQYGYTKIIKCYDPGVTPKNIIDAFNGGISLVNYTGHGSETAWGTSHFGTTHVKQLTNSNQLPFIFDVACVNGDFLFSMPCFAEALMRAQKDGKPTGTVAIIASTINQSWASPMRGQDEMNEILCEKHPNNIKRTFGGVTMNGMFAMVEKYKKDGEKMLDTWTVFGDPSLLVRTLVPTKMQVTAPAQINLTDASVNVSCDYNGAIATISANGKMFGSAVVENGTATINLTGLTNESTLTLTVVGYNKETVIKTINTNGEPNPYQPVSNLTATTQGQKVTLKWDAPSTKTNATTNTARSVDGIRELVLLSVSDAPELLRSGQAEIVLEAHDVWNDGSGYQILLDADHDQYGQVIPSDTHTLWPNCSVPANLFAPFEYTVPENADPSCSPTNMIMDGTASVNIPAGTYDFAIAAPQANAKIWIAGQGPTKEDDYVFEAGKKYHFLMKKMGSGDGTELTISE
Test: ELISA, coated HRgpA-6H

Binder	OD450 nm	Ratio OD(Variant)/OD(WT)
B1	0.853	0.99
B2	0.64	0.844
B3	0.86	0.998
B4	0.751	0.871
B5	0.83 and 0.745 and 0.782	0.982 and 0.882 and 0.925
B6	0.702 and 0.723	0.814 and 0.839
B7	0.813	0.943
B8	0.778 and 0.793 and 0.802	0.903 and 0.92 and 0.93
B9	0.808 and 0.747	0.937 and 0.867
B10	0.736 and 0.741 and 0.714	0.971 and 0.978 and 0.911
B11	0.716	0.847
B12	0.724 and 0.681 and 0.685	0.919 and 0.865 and 0.87
B13	0.753	0.891
B14	0.77	0.893
B15	0.736	0.971
B16	0.67	0.884
B17	0.808	0.956
B18	0.641 and 0.634	0.846 and 0.836
B19	0.813	0.943
B20	0.769	0.977
B21	0.818	0.949
B22	0.759	0.898
B23	0.681	0.865
B24	0.748 and 0.805	0.885 and 0.953
B25	0.838 and 0.817	0.972 and 0.948
B26	0.762	0.902
B27	0.744	0.88
B28	0.823	0.955
B29	0.649	0.856
